# Reference: patent US20230227584A1 (published 2023)
# T1: human OX40 on the cell surface (activated human T cells; HeLa_hOx40_NFkB_Luc1 reporter cells) (human, UniProt P43489 29-277)
# T1 sequence: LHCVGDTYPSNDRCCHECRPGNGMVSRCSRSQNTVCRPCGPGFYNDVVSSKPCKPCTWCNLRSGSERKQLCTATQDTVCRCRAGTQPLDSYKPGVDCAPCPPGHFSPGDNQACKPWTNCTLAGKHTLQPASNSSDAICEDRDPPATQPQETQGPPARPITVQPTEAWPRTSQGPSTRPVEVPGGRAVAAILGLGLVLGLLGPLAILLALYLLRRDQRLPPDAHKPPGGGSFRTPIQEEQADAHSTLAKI
# Legend:
# [1] = target: T1, human OX40 on the cell surface …; test: cell-based or functional assay
# [2] = target: T1, human OX40 on the cell surface …; test: cell-based or functional assay; remark: listed apart in the source
# [3] = target: T1, human OX40 on the cell surface …; test: cell-based or functional assay; remark: listed apart in the source
# [4] = target: T1, human OX40 on the cell surface …; test: cell-based or functional assay; remark: listed apart in the source
# [5] = target: T2, human fibroblast activation protein (huFAP) on NIH/3T3-huFAP clone 19 cells (human, UniProt Q12884 1-760); test: flow cytometry, NIH/3T3-huFAP clone 19 cells
# T2 construct: Mouse NIH/3T3 fibroblasts transfected with vector pETR4921 to express huFAP; also called cell surface FAP
# Description: In another experiment, a mixture of 2 × 10⁵ NIH/3T3-huFAP clone 19 cells and HeLa cells in FACS buffer were added to each well of a round-bottom 96-well plates (TPP, Cat. No. 92097) and the binding assay was performed. Cells were first stained 20 min with LIVE/DEAD™ Fixable Aqua Dead Cell Stain (Molecular probes, Cat.No. L34957) in DPBS, followed after one washing step with 200 µL 4° C. […] Afterwards the cells were washed once with 200 µL FACS buffer at 4° C. and resuspended by a short vortex. Cells were further stained with 50 µL/well of 4° C. cold secondary antibody solution containing Phycoerythrin (PE)-conjugated AffiniPure anti-human IgG Fcy-fragment-specific goat IgG F(ab′)2 fragment (Jackson ImmunoResearch, Cat. No. 109-116-098) and incubated for 30 minutes at 4° C. in the dark. Samples were finally resuspended in 100 µL/well FACS-buffer and acquired the same day using with BD Fortessa running FACS Diva software.
# [6] = target: T1, human OX40 on the cell surface …; test: flow cytometry, activated human PBMC gated on CD4+ T cells
# [7] = target: T3, FcRn (biotinylated, coupled to streptavidin-sepharose); test: FcRn affinity chromatography; retention compared to protein standards with known affinities
# T3 construct: also called neonatal Fc receptor
# Description: For coupling, the prepared receptor was added to streptavidin-sepharose (GE Healthcare). The resulting FcRn-sepharose matrix was packed in a column housing. The column was equilibrated with 20 mM 2-(N-morpholine)-ethanesulfonic acid (MES) and 140 mM NaCl, pH 5.5 (eluent A) at a 0.5 ml/min flow rate. 30 µg of antibody samples were diluted at a volume ratio of 1: 1 with eluent A and applied to the FcRn column. The column was washed with 5 column volumes of eluent A followed by elution with a linear gradient from 20 to 100% 20 mM Tris/HCl and 140 mM NaCl, pH 8.8 (eluent B) in 35 column volumes. The analysis was performed with a column oven at 25° C. The elution profile was monitored by continuous measurement of the absorbance at 280 nm. Retention times were compared to protein standards with known affinities.
"EC50 of NFκB activation (luciferase), HeLa_hOx40_NFkB_Luc1, w/ hu FAP [1] [nM]","EC50 of NFκB activation (luciferase), HeLa_hOx40_NFkB_Luc1, w/o [1] [nM]","EC50 of CD25 upregulation on CD4+ T cells, suboptimal TCR stimulation of human PBMC with NIH/3T3-huFAP cells [2] [nM]",EC50 of increased TCB mediated cytokine secretion following FAP-OX40 costimulation of primary human PBMCs [3] [nM],"EC50 of suppression of FoxP3 induction (FoxP3 MFI) on TGFβ-exposed CD4 T cells, FAP-coated beads [4] [nM]",EC50 [5] [nM],EC50 [6] [nM],FcRn affinity [7],Binder
0.2,0.8,0.003,0.058,0.25,1.71,1.47,-0.1,"P1AF6455 OX40(CLC563) x FAP(1G1a_EPKSCS) 3+1 (bispecific antibody, human IgG1, kappa, L234A L235A, Human IgG1 Fc, knob-into-hole, PGLALA; also called CLC-563, S-variant 3+1) heavy 1: not shown heavy 2: not shown light 1: not shown light 2: EIVLTQSPATLSLSPGERATLSCRASESVDNYGLSFINWFQQKPGQAPRLLIYGTSNRGSGIPARFSGSGSGTDFTLTISSLEPEDFAVYFCQQSNEVPYTFGGGTKVEIKSSASTKGPSVFPLAPSSKSTSGGTAALGCLVKDYFPEPVTVSWNSGALTSGVHTFPAVLQSSGLYSLSSVVTVPSSSLGTQTYICNVNHKPSNTKVDKKVEPKSCS"
0.2,1.9,0.001,0.144,0.11,1.22,1.64,-0.1,"P1AF6454 OX40 (CLC563) x FAP (1G1a_EPKSCD) (3+1) C-terminal crossfab fusion (bispecific antibody, human IgG1, kappa, L234A L235A, 3+1 format; Human IgG1 Fc, knob-into-hole, PGLALA; VL-CH1 chain ends in EPKSCD; also called CLC-563, D-variant 3+1; 3+1 CLC563/H212-D) heavy 1: not shown heavy 2: not shown light 1: not shown light 2: EIVLTQSPATLSLSPGERATLSCRASESVDNYGLSFINWFQQKPGQAPRLLIYGTSNRGSGIPARFSGSGSGTDFTLTISSLEPEDFAVYFCQQSNEVPYTFGGGTKVEIKSSASTKGPSVFPLAPSSKSTSGGTAALGCLVKDYFPEPVTVSWNSGALTSGVHTFPAVLQSSGLYSLSSVVTVPSSSLGTQTYICNVNHKPSNTKVDKKVEPKSCD"
